Experimental data as given in paper doi:10.1101/2022.02.27.482175, “Transient DNA binding to gapped DNA substrates links DNA sequence to the single-molecule kinetics of protein-DNA interactions”.

Columns and labels:
Details in all cases: protein: recombinant; tags: His6; Alexa647 label; chain copies: 2; label: 5' biotin strand 1; Cy3B on strand 2 (position 13); blunt
[1] = molecular target: T1, CAP (catabolite activator protein), Alexa647-CAP (UniProt P0ACJ8 2-210, H18C;C179S); assay: single-molecule TIRF (koff/kon); 0.2 mM cAMP, 10 mM Mg2+; kon 9.73e6 M-1s-1, t2 8.45 s; 1.5 nM CAP, 0.2 mM cAMP, 40 mM Tris pH 8, 100 mM KCl, 10 mM MgCl2, 5% glycerol, 1 mM TROLOX, glucose oxidase/catalase oxygen scavenger (Methods also lists 40% glucose), 27-30 C
[2] = molecular target: T1, CAP (catabolite activator protein), …; assay: single-molecule TIRF (koff/kon); 0.2 mM cAMP, 10 mM Mg2+; kon 8.74e6 M-1s-1, t2 5.2 s; 1.5 nM CAP, 0.2 mM cAMP, 40 mM Tris pH 8, 100 mM KCl, 10 mM MgCl2, 5% glycerol, 1 mM TROLOX, glucose oxidase/catalase oxygen scavenger (Methods also lists 40% glucose), 27-30 C
[3] = molecular target: T1, CAP (catabolite activator protein), …; assay: single-molecule TIRF (koff/kon); 0.2 mM cAMP, 10 mM Mg2+; kon 10.24e6 M-1s-1, t2 3.3 s; 1.5 nM CAP, 0.2 mM cAMP, 40 mM Tris pH 8, 100 mM KCl, 10 mM MgCl2, 5% glycerol, 1 mM TROLOX, glucose oxidase/catalase oxygen scavenger (Methods also lists 40% glucose), 27-30 C

B1: CAPcons DNA (GSeq-CAP-(1-49)) (dsDNA)
DNA 1: GTGCCTAAAATGTGATCTAGATCACATTTATTGCGTAGAGCTCACTGCC
DNA 2: GGCAGTGAGCTCTACGCAATAAATGTGATCTAGATCACATTTTAGGCAC
B1 showed a Kd [1] of roughly 12 nM.

B2: CAPmut1 DNA (GP25/CP25) (dsDNA)
DNA 1: GTGCCTAAAATGTGATCTAGATCAGATTTATTGCGTAGAGCTCACTGCC
DNA 2: GGCAGTGAGCTCTACGCAATAAATCTGATCTAGATCACATTTTAGGCAC
B2 gave a Kd [2] of roughly 22 nM.

B3: CAPmut2 DNA (GP25,CP38) (dsDNA)
DNA 1: GTGCCTAAAATCTGATCTAGATCAGATTTATTGCGTAGAGCTCACTGCC
DNA 2: GGCAGTGAGCTCTACGCAATAAATCTGATCTAGATCAGATTTTAGGCAC
B3 was tested, and the Kd [3] was roughly 30 nM.
